Experimental data from the supplement of paper PMC9170038.

Test system: MS2 coat protein
Assay: apparent KD of MS2 coat protein; designed switch direction (-1 OFF switch, 1 ON switch): -1; higher = weaker reporter binding
Outline: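 Designed RNA switches sharing common flanks were transcribed on Illumina chips by stalled E. coli RNA polymerase. They were titrated with SNAP-549-labelled MS2 coat protein, from 0.7 or 1.5 nM doubling to 3 µM, in Tris-HCl pH 7.5 buffer with KCl, MgCl2, BSA, DTT, tRNA and Tween-20. Titrations ran without input, with 200 uM small-molecule ligand, or with an oligonucleotide input. The apparent KD of each design is the median over its clusters, after curve-fitting of normalised cluster fluorescence.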

[1] = Eterna round: R95, input ligand: microRNA oligo, concentration not stated
[2] = input ligand: microRNA oligo, concentration not stated
[3] = Eterna round: R95, input ligand: FMN 200 uM
[4] = Eterna round: R95, input ligand: none

Row | Sequence | apparent KD of MS2 coat protein (input ligand: FMN 200 uM) | apparent KD of MS2 coat protein (input ligand: none) | apparent KD of MS2 coat protein [1] | apparent KD of MS2 coat protein [2] | apparent KD of MS2 coat protein [3] | apparent KD of MS2 coat protein [4]
1 | UGCAAGCUUUAAAGAUCCUACAUGAGGAUCACCCAUGUGCUCGUCUUAUAACGUACUGUGACGAAAGUCACGGUACG [JL TOV1 3.96] (Eterna round: R97, puzzle: Sensor, turn-off variant 1) | 324 nM | 315 nM | – | – | – | –
2 | UGCAGACGAGGAUAUAAACGAUAUAACAUGAGGAUCACCCAUGUACGAUCGAAUGAUCGUUUAGAAGGCGUCUGCA [E5/10-A1] (Eterna round: R97, puzzle: Exclusion 5) | 16.6 nM | 15.7 nM | – | – | – | –
3 | UGCAGACGAGGAUAUGAUUAAUAAUACAUGAGGAUCACCCAUGUAAUACUGAUCUAUGGAUCAGAAGGCGUCUGCA [E5/6-A1] (Eterna round: R97, puzzle: Exclusion 5) | 11.4 nM | 12.9 nM | – | – | – | –
4 | UGCAGUGAUCCAGAAUGUUACAUGAGGAUCACCCAUGUUAGUAUUGUUUAGUUGUAUAAGUUUGUUGUUCGUUUUAU [JR_STOV1_v2_Sub079] (Eterna round: R97, puzzle: Sensor, turn-off variant 1) | 68.8 nM | 202 nM | – | – | – | –
5 | UGCAUGGUAGGAUAUACGGAACAUUAGGGUUUGUUGUGUGGACAUGAGGAUCACCCAUGUAGAAGGGCCGUGCU [JL-ex2-2.15 mat747 mod] (puzzle: Exclusion 2) | – | – | 40.4 nM | – | – | –
6 | UGCAUGUAAGGAUAUGCAUCCGCCAACGAACCGGCGGCACAGCAGAAGGUACAUGAGGAUCACCCAUGUGUCCC [Isonrian] (Eterna round: R96, puzzle: Exclusion 4) | 357 nM | 29.8 nM | – | 25 nM | – | –
7 | UGCAUGUCAGGAUAUCGUGCAUACAACGAAAGUUCUAUGUGCGAGAAGGGACAUGAGGAUCACCCAUGUCUUAG [Omei Ex4 A18] (Eterna round: R97, puzzle: Exclusion 4) | 67.1 nM | 22.6 nM | – | – | – | –
8 | UGCCGAAGAGGAUAUACAUUGAAUUUGAUUCAUGUAAAACUACAUGAGGAUCACCCAUGUAGAAGGCUUUGGCU [Mat - Exclusion 2 - JL Mod - D61] (Eterna round: R97, puzzle: Exclusion 2) | 34.2 nM | 15.3 nM | – | – | – | –
9 | UGCGAAGAGUGAGGAUAUGUGCGACAAAGUUGCACAGAAGGCACAUGAGGAUCACCCAUGUAAGCUAGGUCGAAAGACCUAGCG [Omei Exc(NG)1 Av5] (Eterna round: R96, puzzle: Exclusion NG 1) | 106 nM | 43.4 nM | – | 40.6 nM | – | –
10 | UGCUACAUGAGGAUCACCCAUGUAAUGUGGGAAUCGUUAGGACAGGAUAUGAUUGUAUUGUUUUUUCAGAAGGGUCAUUACUUU [JR_ExcNG3_Sub012] (Eterna round: R96, puzzle: Exclusion NG 3) | – | – | – | 212 nM | – | –
11 | UGCUACGGAGGAUAUACAUGAGGAUCACCCAUGUGUGAGAUUUGGCCGAGAGGCCAGUGUAGAAGGCCGUAGCU [jl-ex3-4.19 jl mod] (Eterna round: R97, puzzle: Exclusion 3) | 615 nM | 193 nM | – | – | – | –
12 | UGGCUUUGAGGAUAUACAUUGAAUAAGAUUCAUGUAAAACUACAUGAGGAUCACCCAUGUAGAAGGCAAGGCCU [Mat - Exclusion 2 - JL Mod - D74] (Eterna round: R97, puzzle: Exclusion 2) | 26.9 nM | 16 nM | – | – | – | –
13 | UGGGUUCUCCAUAGAAGUAACAUGAGGAUCACCCAUGUAGGGCAAGUUUUUUGCUCGUCAUAGGUUGUGGGUUUGGA [JR_SV3TOV1_Sub018] (puzzle: Sensor v3, turn-off variant 1) | – | – | 491 nM | – | 578 nM | 660 nM
14 | UGGGUUCUCCAUGGAAGUAACAUGAGGAUCACCCAUGUAGGGCAAGUUUUUUGCUCGUCAUAGGCCGUGGGUUUGGA [JR_SV3TOV1_Sub019] (puzzle: Sensor v3, turn-off variant 1) | – | – | 248 nM | – | 252 nM | 305 nM
15 | UGGUAACAUGAGGAUCACCCAUGUCAGGAUAUCAGUAAGAAUAGAUGAGAGUAGAAGAUGAGAAGGGACUAUAU [Excluse me! 7 - Jieux - Exclusion 1] (puzzle: Exclusion 1) | – | – | 29.1 nM | – | – | –
16 | UGGUGGAAGCAGGAUAUGCUUGUUUUAUUGAUUGCAGAAGGGCUAACAUGAGGAUCACCCAUGUAAGAGGUGUU [JR_E6_Sub055] (puzzle: Exclusion 6) | – | – | 303 nM | – | – | –
17 | UGUACGAUGCGUGCUGACAUGCGUCGUGCAGCAGGUGUUACAUGAGGAUCACCCAUGUCCUCAUUUGCUCGUCUUAU [SL-sv3-2.08 JL mod] (puzzle: Sensor v3, turn-off variant 2) | – | – | 250 nM | – | 250 nM | 337 nM

Row | Sequence | apparent KD of MS2 coat protein (input ligand: FMN 200 uM) | apparent KD of MS2 coat protein (input ligand: none) | apparent KD of MS2 coat protein [1] | apparent KD of MS2 coat protein [2] | apparent KD of MS2 coat protein [3] | apparent KD of MS2 coat protein [4]
18 | UGUACUAACACGGAAGUGUUAGUACUAUAAGCUUGUGUUACAUGAGGAUCACCCAUGUCCUCAUAAGCUCGUCUUAA [Mat - Sensor v3 - Turn-off var 2 - D73] (puzzle: Sensor v3, turn-off variant 2) | – | – | 198 nM | – | 43.3 nM | 41 nM
19 | UGUACUAACACGGAAGUGUUAGUACUAUAAGCUUGUGUUACAUGAGGAUCACCCAUGUCCUCAUAAGCUCGUCUUAU [Mat - Sensor v3 - Turn-off var 2 - D74] (puzzle: Sensor v3, turn-off variant 2) | – | – | 53.6 nM | – | 157 nM | 172 nM
20 | UGUAUACAUGAGGAUCACCCAUGUAAGGAUAUGCUUUAUUAUUAUUAUUAUUAUUGUUGCAGAAGGUACAUUAU [LRO-Excl01-07] (Eterna round: R97, puzzle: Exclusion 1) | 26.4 nM | 25.6 nM | – | – | – | –
21 | UGUAUUAUAGGAUAUCACAACCUGGACAUGAGGAUCACCCAUGUGGUUGCAUGCUGUCGAUGAGAAGGAUAGGGCG [Eternabot (L1) Solution 43] (Eterna round: R97, puzzle: Exclusion 5) | 22.8 nM | 21.9 nM | – | – | – | –
22 | UGUCUGUCAGGAUAUUCGAGUUCGAGUGAAAGCUUGAGCUUGAAGAAGGGACAUGAGGAUCACCCAUGUGGACG [-28.5, -27.4 kcal, A 27%, 1bis-(ca)1] (Eterna round: R97, puzzle: Exclusion 4) | 87.8 nM | 50.1 nM | – | – | – | –
23 | UGUGAGCUAGGAUAUGCUUUGGGCUCGCUUUCCUUCGAUAAACUUGAGGAUCACCCAAGUAGAAGGAGCUUGCA [Mod 31 - Jieux - Exclusion 2] (Eterna round: R97, puzzle: Exclusion 2) | 39.6 nM | 20.4 nM | – | – | – | –
24 | UGUGUGUGAGGAUAUACAAUGCGCGCGCGAAAGUGUGUGUUACAUGAGGAUCACCCAUGUAGAAGGCGCGCGCG [-31, -27.8 kcal A 24%, 6,6bis] (Eterna round: R97, puzzle: Exclusion 2) | 15.7 nM | 17 nM | – | – | – | –
25 | UGUUGGCGAGGAUAUACAUGAGGAUCACCCAUGUGAGAGAAAAAAGUGAGGAAGAAAAGUAGAAGGCGCUGACA [salish99_ex3_r3_045] (puzzle: Exclusion 3) | – | – | 42.5 nM | – | 371 nM | 48.4 nM
26 | UGUUGUCGCGCAGGAUAUGUAUGAGGAUCACCCAUAAGAGUAUAUUUACCAUGAGGAUCACCCAUGUAGAAGGGCGGGACAACA [pwkr exNG2 2xF5 1xFMN.11] (Eterna round: R96, puzzle: Exclusion NG 2) | 105 nM | 73.6 nM | – | 46.6 nM | – | –
27 | UGUUGUCGCGUAGGAUAUUGUCAACAGGCAAUAGGAUAUGCGAAAGCAGAAGGAUCGCCAACAGGCGAGAAGGACGGGACAACU [pwkr exNG2 2xF7 2xFMN.5] (Eterna round: R96, puzzle: Exclusion NG 2) | 142 nM | 1140 nM | – | 913 nM | – | –
28 | UGUUGUUACGCAGGAUAUGAGGAUCACCCAUAGAAGGAUAUCGAAAGAGAAGGUCUGAGGAUUACCCAGAAGGGCGGGUUAACA [pwkr exNG2 2xF5 2xFMN.1] (Eterna round: R96, puzzle: Exclusion NG 2) | 714 nM | 139 nM | – | 153 nM | – | –
29 | UGUUGUUACGCAGGAUAUGAGGAUCACCCAUAUAAGGAUAUCGAAAGAGAAGGUCUGAGGAUUACCCAGAAGGGCGGGUUAACA [pwkr exNG2 2xF5 2xFMN.29] (Eterna round: R96, puzzle: Exclusion NG 2) | 227 nM | 115 nM | – | 65.3 nM | – | –
30 | UGUUGUUACGCAGGAUAUGCAUGAGGAUCACCCAUGCAACCACAUUUAACAUGAGGAUCACCCAUGUAGAAGGGCGGGUUAACA [pwkr exNG2 2xF5 1xFMN.1] (Eterna round: R96, puzzle: Exclusion NG 2) | 77.5 nM | 28 nM | – | 20.4 nM | – | –
31 | UGUUGUUCAGGAUAUGAAGUAUAUUACAUGAGGAUCACCCAUGUAGAUCCUGAAUAUACAUCAGAAGGGAAUAUUU [JR_Ex5_Sub057] (Eterna round: R97, puzzle: Exclusion 5) | 51 nM | 21.1 nM | – | – | – | –
32 | UGUUUAUAUGAAGGAUAUACUUAACAUGAGGAUCACCCAUGUGGUGUUGUGAGUGAGUGAGUUUAGUAGAAGGUCAAUGAUUUU [JMF's solution 75] (Eterna round: R96, puzzle: Exclusion NG 2) | 1030 nM | 333 nM | – | 200 nM | – | –
33 | UUAAAUCAUGUAGGAUAUGCGUAGCGAAGCUAUGCAGAAGGACAUGAGGAUCACCCAUGUGCUUGCGUCCGCGUACGGAUGCUA [Mat - Exclusion NG 1 - Mod of JL - D66] (Eterna round: R96, puzzle: Exclusion NG 1) | 202 nM | 134 nM | – | 107 nM | – | –
